Measurements: IntAct's records for PubMed 36127429

B1: Protein SHMOOSE (Homo sapiens), C0HM83 (parent)
chain: MPPCLTTWLSQLLKDNSYPLVLGPKNFGATPNKSNNHAHYYNHPNPDFPNSPHPYHPR
partner: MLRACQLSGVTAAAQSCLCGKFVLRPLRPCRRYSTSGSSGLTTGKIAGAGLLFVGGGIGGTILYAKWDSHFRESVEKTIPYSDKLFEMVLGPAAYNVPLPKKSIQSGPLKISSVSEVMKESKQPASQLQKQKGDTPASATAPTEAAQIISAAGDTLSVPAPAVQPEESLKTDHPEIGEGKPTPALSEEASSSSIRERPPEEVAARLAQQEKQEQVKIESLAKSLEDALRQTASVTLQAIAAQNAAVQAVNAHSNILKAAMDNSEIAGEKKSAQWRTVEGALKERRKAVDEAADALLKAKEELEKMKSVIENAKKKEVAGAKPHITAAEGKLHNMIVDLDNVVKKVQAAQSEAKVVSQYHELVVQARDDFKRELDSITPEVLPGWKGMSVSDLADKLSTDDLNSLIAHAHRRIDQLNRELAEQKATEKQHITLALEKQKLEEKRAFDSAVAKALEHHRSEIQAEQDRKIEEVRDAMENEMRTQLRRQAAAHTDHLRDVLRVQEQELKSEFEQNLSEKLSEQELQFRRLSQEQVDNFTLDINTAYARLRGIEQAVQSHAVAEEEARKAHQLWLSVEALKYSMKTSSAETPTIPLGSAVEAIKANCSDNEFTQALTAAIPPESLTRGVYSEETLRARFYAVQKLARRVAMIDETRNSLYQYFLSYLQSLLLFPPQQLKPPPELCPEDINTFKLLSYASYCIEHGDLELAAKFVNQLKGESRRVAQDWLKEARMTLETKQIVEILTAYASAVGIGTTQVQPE

Variants of: B1
Settings: with mic60_human IMMT

| effect of a mutation on the interaction | Variant |
| --- | --- |
| with no effect | MPPCLTTWLSQLLKDNSYPLVLGPKNFGATPNKSNNHAHYYNHPNPNFPNSPHPYHPR [D47N] |
